System: MS2 coat protein
Experiment: apparent KD of MS2 coat protein; designed switch direction (-1 OFF switch, 1 ON switch): -1; higher = weaker reporter binding
In short: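 The apparent KD reported per design is the median over clusters of curve fits to normalised cluster fluorescence. The RNA switches were transcribed on Illumina chips by stalled E. coli RNA polymerase. SNAP-549-labelled MS2 coat protein was titrated from 0.7 or 1.5 nM, doubling up to 3 µM, in Tris-HCl pH 7.5 buffer containing KCl, MgCl2, BSA, DTT, tRNA and Tween-20, with no input, 200 uM small-molecule ligand, or an oligonucleotide input.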

[1] = input ligand: microRNA oligo, concentration not stated
[2] = Eterna round: R95, input ligand: microRNA oligo, concentration not stated
[3] = Eterna round: R95, input ligand: FMN 200 uM
[4] = Eterna round: R95, input ligand: none

Row | Sequence | apparent KD of MS2 coat protein (input ligand: FMN 200 uM) [nM] | apparent KD of MS2 coat protein [1] [nM] | apparent KD of MS2 coat protein (input ligand: none) [nM] | apparent KD of MS2 coat protein [2] [nM] | apparent KD of MS2 coat protein [3] [nM] | apparent KD of MS2 coat protein [4] [nM]
1 | CCACGUCCGUACGUGUACUUGUCUCCUGAGAGCACGGGCACAUGAGGAUCACCCAUGUUUUUGCUCGUCUUAUGAGC [JR_Sensorv2_tov2_Sub716] (Eterna round: R96, puzzle: Sensor v2, turn-off variant 2) | 13.8 | 25.4 | 17.7 |  |  | 
2 | UUAUAUAGAGUGAGGAUAUGCUGGUCCUUGGAUCAGCAGAAGGCACAUGAGGAUCACCCAUGUAAUAUAUUAUU [Mat - Exclusion 4 - JL Mod - D37] (puzzle: Brourd's mod of Exclusion 4) |  |  |  | 21.1 |  | 
3 | GAUCGGACGUGGUCAGGUAACAUGAGGAUCACCCAUGUAGGUCUAGGAACAAGCUUUUUGAAAGCUCGUCUUAUAUA [JR_SV3TOV1_Sub057] (puzzle: Sensor v3, turn-off variant 1) |  |  |  | 25.5 | 44.8 | 49.3
4 | UCCUUACUGGUCAGGAUAUACAUUCGCUACUGGGUGUAGAAGGGACAUGAGGAUCACCCAUGUACGUUACAUCC [alecazam54e] (Eterna round: R97, puzzle: Brourd's mod of Exclusion 4) | 19.3 |  | 23.8 |  |  | 
5 | CACCGUAACUGAGGAUAUCAAACAUGAGGAUCACCCAUGUAAUAAAUGAGAAUUUCGAAUGUACCUGAGAAGGCAGAAACCGGC [Ostricism 84 - Jieux - Exclusion NG 2] (Eterna round: R96, puzzle: Exclusion NG 2) |  | 25.1 |  |  |  | 
6 | UACAAGCAAGGAUAUACAUGAGGAUCACCCAUGUCACUCCUAGCGCGGGUUUUGAAAUGUAGAAGGUGCACCUG [EX3 B.14] (Eterna round: R97, puzzle: Exclusion 3) | 17.3 |  | 20.5 |  |  | 
7 | UACAUGAGGAUCACCCAUGUUUUGUCGUGUAUGGUAUUUAUCUAGGAUAUCAAUUUGUUUAGUUAUGAGAAGGAGAAUAUUAAU [JMF's solution 71] (Eterna round: R96, puzzle: Exclusion NG 3) | 35.9 | 33.3 | 37.6 |  |  | 
8 | UGUAACCUAGGAUAUACAUGAGGAUCACCCAUGUAAUGUAGUAUAGUGUGUGUAAGGUGUAGAAGGAGGAAUGU [LRO-Excl05-23-Smart Aleck] (Eterna round: R97, puzzle: Exclusion 3) | 76.2 |  | 52.6 |  |  | 
9 | AGCAAGCAAUAGGAUAUGCCUGCAAGCUUGCACGCAGAAGGAUUGACUUGAGGAUCACCCAAGUGGGCUCCAAA [Xemaesti] (Eterna round: R97, puzzle: Exclusion 6) | 356 |  | 83.6 |  |  | 
10 | CGCUAGUCAGGAUAUACGAACAUGUCAAAAGACGUGAAGGGACAUGAGGAUCACCCAUGUAGAAGGGACUAGCG [salish99_ex2_r3_012] (puzzle: Exclusion 2) |  |  |  | 20 | 152 | 28.5
11 | AGGGCGGGAGGAUAUCCAAUAUAUGACAUGAGGAUCACCCAUGUUUCCACUCGUACCUCCGGAGAAGGCCCGCCGA [Ex5 #25] (Eterna round: R97, puzzle: Exclusion 5) | 21.2 |  | 21.5 |  |  | 
12 | ACAAGCUUUUUGUUCGUCUUAUAAUAAUAAAUAAAUAUAACAUGAGGAUCACCCAUGUUGAGAAGACGGCCUCAUGU [Sesor Array 22 - Jieux - Sensor v3, turn-off variant 2] (puzzle: Sensor v3, turn-off variant 2) |  |  |  | 31.8 | 134 | 203
13 | UGGCGUUAAGGAUAUACAUGAGGAUCACCCAUGUUUCGGGAGAGCCAUUGAGCCGCAAGUAGAAGGUAGUACCC [Eternabot (L2) Solution 23] (Eterna round: R97, puzzle: Exclusion 3) | 37.4 |  | 47.9 |  |  | 
14 | GCUUGUGGGCAAGGAUAUCCUGCGCUGUUCUGGUUCGUGUCUGUCACAUGAGGAUCACCCAUGUGGGAGAAGGUGCCUUUGGCG [Design 65] (Eterna round: R96, puzzle: Exclusion NG 2) | 12.5 | 10.5 | 13.2 |  |  | 
15 | ACUAGAUGAGGAUAUACACAUUUUAGUGUUCCUCUAGAUUAACAUGAGGAUCACCCAUGUAGAAGGCAUCAUUU [Exclusion 2 - 10] (puzzle: Exclusion 2) |  |  |  | 80.8 |  | 
16 | UAAAUAAAUGUAGGAUAUCUGCACGUUUAGUGCAGAGAAGGACAUGAGGAUCACCCAUGUAUAGUAGCUUCGGCUACAAAUAAU [ENG1-C2] (Eterna round: R96, puzzle: Exclusion NG 1) | 115 | 42.2 | 76.3 |  |  | 
17 | AAAUACAAGCAAAGAUCUUACAUGAGGAUCACCCAUGUGCUCGUCUUGUAAAGUACUAUCACGAAAGUGAUAGUACA [Sensor 3, v1 - 30] (puzzle: Sensor v3, turn-off variant 1) |  |  |  | 98.8 | 23.1 | 20.4

Row | Sequence | apparent KD of MS2 coat protein (input ligand: FMN 200 uM) [nM] | apparent KD of MS2 coat protein [1] [nM] | apparent KD of MS2 coat protein (input ligand: none) [nM] | apparent KD of MS2 coat protein [2] [nM] | apparent KD of MS2 coat protein [3] [nM] | apparent KD of MS2 coat protein [4] [nM]
18 | GAAAAGUGAGGAUAUGGUAAUGUAAGUAUGUAGUAUGUAAUCCAGAAGGCACAUGAGGAUCACCCAUGUAAAAG [Mat - Exclusion 4 - D102] (puzzle: Exclusion 4) |  |  |  | 24.4 |  | 
19 | AUGGGUACUUUCGGAGCGACAUGAGGAUCACCCAUGUAUAUUGAGGAUAUCCACUACUAAGGACGGGAGAAGGCAGUGUACUGU [Ex NG3 #81] (Eterna round: R96, puzzle: Exclusion NG 3) | 53.3 | 29.2 | 46.4 |  |  | 
20 | CAGGCUACAAACGCUCGUCACAUGAGGAUCACCCAUGUACGCCUCUAUCGUAAGUCCAGCGUUCGCUGGCAAGGGUA [Eternabot (Original) Solution 19] (Eterna round: R97, puzzle: Sensor, turn-off variant 1) | 47.5 |  | 56.2 |  |  | 
21 | AUUCAUGCAGGAUAUACAUGAGGAUCACCCAUGUUAAUUUCUACAAGGCGGCAUCUAUGUAGAAGGGUAUGAAG [Eternabot (L2) Solution 33] (Eterna round: R97, puzzle: Exclusion 3) | 35.5 |  | 24.6 |  |  | 
22 | GCCAGAGCAGGAUAUCUAAUGUAUCACAUGAGGAUCACCCAUGUCCAGCGAAAGCUGGAGGGAGAAGGGCUCUGGC [Fiskers Ex 5 - 20] (puzzle: Exclusion 5) |  |  |  | 105 | 49.9 | 106
23 | UUAUUAUAUGUAGGAUAUGCAUAUUAUUAUUAUGCAGAAGGACAUGAGGAUCACCCAUGUAUAUUAUUAUUAUAUAUUAUAUAU [Title] (Eterna round: R96, puzzle: Exclusion NG 1) |  | 23.6 |  |  |  | 
24 | GUUUCACAUGAGGAUCACCCAUGUGAGGAUAUGGAUUCGAUAGAAGUAGAAGAUGGAUCCAGAAGGCGCGUGAC [JR_Ex1_Sub078] (Eterna round: R97, puzzle: Exclusion 1) | 35.3 |  | 36.4 |  |  | 
25 | UGCCGUAGAGGAUAUACAUUGAAAUAGAUUCAUGUAAAACUACAUGAGGAUCACCCAUGUAGAAGGCUAUGGCU [JL-ex2-4.34 Eli mod] (Eterna round: R97, puzzle: Exclusion 2) | 68.4 |  | 23 |  |  | 
26 | CGUAGCAAAGUGAGGAUAUCUAGAGCUUCGGCUCUAGAGAAGGCACAUGAGGAUCACCCAUGUGAUUAGCUACG [BmEx4/9-A1] (Eterna round: R97, puzzle: Brourd's mod of Exclusion 4) | 152 |  | 29.8 |  |  | 
27 | CCUUAUCCACAGGAUAUGCUCAUCUAAUGAUGAGCAGAAGGGUGGACAUGAGGAUCACCCAUGUUUAUCAAUGG [Omei Ex6 D3] (Eterna round: R97, puzzle: Exclusion 6) | 675 |  | 1040 |  |  | 
28 | AUCUUGUCAGGAUAUCGUACAAUAUGGAAAACAUAGAGGUACGAGAAGGGACAUGAGGAUCACCCAUGUAAAAC (Eterna round: R96, puzzle: Exclusion 4) |  | 29 |  |  |  | 
29 | CGUGCGUAUGUGAGGAUAUGCUGGUCCUUGGCUCGGCAGAAGGCACAUGAGGAUCACCCAUGUGGUGUCGUACU [salish99_Bmod_ex4_069] (Eterna round: R96, puzzle: Brourd's mod of Exclusion 4) | 291 | 61.1 | 67.5 |  |  | 
30 | UUUUUAUAUGAAGGAUAUACUUAACAUGAGGAUCACCCAUGUGGUGUUGUGAGUGAGUGAGUUUAGUAGAAGGUCAAUGAUUGU [JMF's solution 60] (Eterna round: R96, puzzle: Exclusion NG 2) | 918 | 216 | 369 |  |  | 
31 | UUGUCGGCAGGAUAUACAUGAGGAUCACCCAUGUAAAUUUUUCGUUUAACUUGAAUGUGUAGAAGGGCCAUGUA [Ex3 #70] (Eterna round: R97, puzzle: Exclusion 3) | 28.2 |  | 25.2 |  |  | 
32 | AAAUAGUUAGGAUAUACAUGAGGAUCACCCAUGUAGGGUUCCGUCAUGCAGAAAAUGCGUAGAAGGAACUAUCC [EX3 A.22] (Eterna round: R97, puzzle: Exclusion 3) | 16.6 |  | 17.6 |  |  | 
33 | AGGUGUAGAGGAUAUCCAUCCUCCCACAUGAGGAUCACCCAUGUCCUGGUCACCAAGGACGGAGAAGGCUACACCA [Omei Ex5 D21] (Eterna round: R97, puzzle: Exclusion 5) | 108 |  | 142 |  |  | 
34 | GUCAGCUCGUCAGGAUAUACAUGAGGAUCACCCAUGUGAUCAAUAGCAGCUUCGGCUGCAUUAAUGUAGAAGGGACGAGCUGAU [ENG2/5-B2] (Eterna round: R96, puzzle: Exclusion NG 2) |  | 168 |  |  |  | 
